{"source": "patent US20250155457A1", "about": "(DIAGNOSTICA STAGO, published 2025)", "binders": {"B1": {"name": "chimeric monoclonal antibody 5B9 (antibody, V domains shown)", "VH": "DVQLQESGPDLVKPSQSLSLTCTVTGYSITSGYSWHWIRQFPGNKLEWMGYIHYSGSTNYNPSLKSRISITRDTSKNQFFLQLNSVTTEDTATYYCARELRLRYFDVWGAGTTVTVSS", "VL": "EIVLTQSPTTMAASPGEKITITCSASSSISSNYLHWYQQKPGFSPKLLIYRTSNLASGVPARFSGSGSGTSYSLTIGTMEAEDVATYYCQQGSSIPLTFGAGTKLELKR"}}, "assay_in_all_cases": "cell-based or functional assay", "key": {"[1]": {"target": "T1, exogenous platelet factor 4 (PF4), heparin-modified (PF4/heparin complex) (UniProt P02776 32-101)", "T1 sequence (looked up)": "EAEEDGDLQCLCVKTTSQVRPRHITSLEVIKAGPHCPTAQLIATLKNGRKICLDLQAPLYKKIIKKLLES"}, "[2]": {"target": "T1, exogenous platelet factor 4 (PF4), …", "remark": "listed apart in the source"}, "[3]": {"target": "T1, exogenous platelet factor 4 (PF4), …", "remark": "listed apart in the source"}, "[4]": {"target": "T1, exogenous platelet factor 4 (PF4), …", "remark": "listed apart in the source"}, "[5]": {"target": "T1, exogenous platelet factor 4 (PF4), …", "remark": "listed apart in the source"}, "[6]": {"target": "T1, exogenous platelet factor 4 (PF4), …", "remark": "listed apart in the source"}, "[7]": {"target": "T1, exogenous platelet factor 4 (PF4), …", "remark": "listed apart in the source"}, "[8]": {"target": "T1, exogenous platelet factor 4 (PF4), …", "remark": "listed apart in the source"}, "[9]": {"target": "T1, exogenous platelet factor 4 (PF4), …", "remark": "listed apart in the source"}, "[10]": {"target": "T1, exogenous platelet factor 4 (PF4), …", "remark": "listed apart in the source"}, "[11]": {"target": "T1, exogenous platelet factor 4 (PF4), …", "remark": "listed apart in the source"}, "[12]": {"target": "T1, exogenous platelet factor 4 (PF4), …", "remark": "listed apart in the source"}}, "data": [{"binder": "B1", "values": [{"measurement": "VS series activation ratio, CD62P labeling, patient 6 whole blood", "setting": "[1]", "result": 117, "unit": "ratio"}, {"measurement": "VS series inhibition ratio, CD62P labeling, patient 6 whole blood (heparin 100 IU/ml)", "setting": "[1]", "result": 0.94, "unit": "ratio"}, {"measurement": "VS series activation ratio, Annexin V labeling, patient 4 whole blood", "setting": "[2]", "result": 412, "unit": "ratio"}, {"measurement": "VS series inhibition ratio, Annexin V labeling, patient 4 whole blood (heparin 100 IU/ml)", "setting": "[2]", "result": 0.95, "unit": "ratio"}, {"measurement": "VS series activation ratio, CD62P labeling, patient 2 whole blood", "setting": "[3]", "result": 13.2, "unit": "ratio"}, {"measurement": "VS series inhibition ratio, CD62P labeling, patient 2 whole blood (heparin 100 IU/ml)", "setting": "[3]", "result": 0.9, "unit": "ratio"}, {"measurement": "VS series activation ratio, CD62P labeling, patient 1 whole blood (max % x MFI with 5B9 + PF4 + low heparin over basal)", "setting": "[4]", "result": 300, "unit": "ratio"}, {"measurement": "VS series inhibition ratio, CD62P labeling, patient 1 whole blood (heparin 100 IU/ml)", "setting": "[4]", "result": 0.88, "unit": "ratio"}, {"measurement": "VS series activation ratio, Annexin V labeling, patient 6 whole blood", "setting": "[5]", "result": 26.5, "unit": "ratio"}, {"measurement": "VS series inhibition ratio, Annexin V labeling, patient 6 whole blood (heparin 100 IU/ml)", "setting": "[5]", "result": 0.75, "unit": "ratio"}, {"measurement": "VS series activation ratio, Annexin V labeling, patient 2 whole blood", "setting": "[6]", "result": 11.3, "unit": "ratio"}, {"measurement": "VS series inhibition ratio, Annexin V labeling, patient 2 whole blood (heparin 100 IU/ml)", "setting": "[6]", "result": 0.65, "unit": "ratio"}, {"measurement": "VS series activation ratio, Annexin V labeling, patient 5 whole blood", "setting": "[7]", "result": 8.6, "unit": "ratio"}, {"measurement": "VS series inhibition ratio, Annexin V labeling, patient 5 whole blood (heparin 100 IU/ml)", "setting": "[7]", "result": 0.61, "unit": "ratio"}, {"measurement": "VS series activation ratio, Annexin V labeling, patient 1 whole blood", "setting": "[8]", "result": 95.9, "unit": "ratio"}, {"measurement": "VS series inhibition ratio, Annexin V labeling, patient 1 whole blood (heparin 100 IU/ml)", "setting": "[8]", "result": 0.85, "unit": "ratio"}, {"measurement": "VS series activation ratio, CD62P labeling, patient 3 whole blood", "setting": "[9]", "result": 94.2, "unit": "ratio"}, {"measurement": "VS series inhibition ratio, CD62P labeling, patient 3 whole blood (heparin 100 IU/ml)", "setting": "[9]", "result": 0.57, "unit": "ratio"}, {"measurement": "VS series activation ratio, CD62P labeling, patient 4 whole blood", "setting": "[10]", "result": 281, "unit": "ratio"}, {"measurement": "VS series inhibition ratio, CD62P labeling, patient 4 whole blood (heparin 100 IU/ml)", "setting": "[10]", "result": 0.94, "unit": "ratio"}, {"measurement": "VS series activation ratio, Annexin V labeling, patient 3 whole blood", "setting": "[11]", "result": 21.7, "unit": "ratio"}, {"measurement": "VS series inhibition ratio, Annexin V labeling, patient 3 whole blood (heparin 100 IU/ml)", "setting": "[11]", "result": 0.74, "unit": "ratio"}, {"measurement": "VS series activation ratio, CD62P labeling, patient 5 whole blood", "setting": "[12]", "result": 52.7, "unit": "ratio"}, {"measurement": "VS series inhibition ratio, CD62P labeling, patient 5 whole blood (heparin 100 IU/ml)", "setting": "[12]", "result": 0.84, "unit": "ratio"}]}]}
